Molecular target: bovine serum albumin (BSA) (bovine, UniProt P02769 25-607)
Experiment: antigen solid phase ELISA: coated BSA, anti-mouse IgG2A-HRP, A450
Experimental: The obtained avian-mouse chimeric antibody in Example 1 and the obtained humanized antibodies (Humanized-1 and Humanized-2) and avian-human chimeric antibody in Example 2 were measured for antigenic specificity by antigen solid phase ELISA with PBS buffer. The obtained avian-mouse chimeric antibody in Example 1, which was labeled with biotin, was also measured for antigenic specificity. CL18M (+) avian-mouse chimeric antibody, which served as a negative control, was also measured for antigenic specificity. Particular measurement conditions were as follows.
Firstly, 2.5 μg/mL of antigen (mouse and human Sema 3A protein) was dispensed into a 384 Well MaxiSorp Plate (Nunc) and reacted overnight at 4° C. in order to coat the plate with the antigen. Otherwise, ovalbumin (OVA) and bovine serum albumin (BSA) were immobilized in the plate as negative controls in similar manner in order to examine specificity of antibodies. After reaction, the plate was washed three times with 50 μL/well of washing solution (PBS containing 0.05% Tween 20), to which was added 25 μL/well of blocking solution (PBS buffer containing 1% bovine serum albumin), and the mixture was reacted for 30 minutes. […] The absorbance was measured at 450 nm using Infinite M1000 (Tecan Trading AG).

bovine serum albumin (BSA), sequence (P02769 25-607 limits assumed): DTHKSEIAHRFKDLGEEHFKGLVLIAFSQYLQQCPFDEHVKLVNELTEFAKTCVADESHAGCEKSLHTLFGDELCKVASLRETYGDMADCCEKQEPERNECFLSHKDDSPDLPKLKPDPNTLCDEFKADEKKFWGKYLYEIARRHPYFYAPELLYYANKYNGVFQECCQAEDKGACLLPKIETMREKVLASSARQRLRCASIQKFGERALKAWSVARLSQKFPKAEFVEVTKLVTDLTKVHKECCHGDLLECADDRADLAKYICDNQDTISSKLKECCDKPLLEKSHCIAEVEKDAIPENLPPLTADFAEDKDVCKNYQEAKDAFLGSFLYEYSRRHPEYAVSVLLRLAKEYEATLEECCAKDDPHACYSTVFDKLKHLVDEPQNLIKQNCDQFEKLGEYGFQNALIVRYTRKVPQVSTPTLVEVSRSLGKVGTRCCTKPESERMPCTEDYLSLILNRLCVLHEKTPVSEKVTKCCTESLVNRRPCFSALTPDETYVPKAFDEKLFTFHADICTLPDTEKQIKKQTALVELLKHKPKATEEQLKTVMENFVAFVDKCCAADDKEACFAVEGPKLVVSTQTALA

binding result: no binding (tested: about 2 µg/mL)
B1: Anti-Sema 3A avian-mouse chimeric antibody (clone No. 4-2-derived) (antibody, mouse IgG2a)
heavy: AVTLDESGGGLQTPGGALSLVCKASGFTFSSYPMGWVRQAPGKGLEWVAGIDDDGDSDTRYAPAVKGRATISRDNGQSTVRLQLNNLRAEDTGTYYCAKHTGIGANSAGSIDAWGHGTEVIVSSAKTTAPSVYPLAPVCGDTTGSSVTLGCLVKGYFPEPVTLTWNSGSLSSGVHTFPAVLQSDLYTLSSSVTVTSSTWPSQSITCNVAHPASSTKVDKKIEPRGPTIKPCPPCKCPAPNLLGGPSVFIFPPKIKDVLMISLSPIVTCVVVDVSEDDPDVQISWFVNNVEVHTAQTQTHREDYNSTLRVVSALPIQHQDWMSGKEFKCKVNNKDLPAPIERTISKPKGSVRAPQVYVLPPPEEEMTKKQVTLTCMVTDFMPEDIYVEWTNNGKTELNYKNTEPVLDSDGSYFMYSKLRVEKKNWVERNSYSCSVVHEGLHNHHTTKSFSRTPGK
light: ALTQPASVSANLGGTVKITCSGGGSYTGSYYYGWYQQKSPGSALVTMIYYNNKRPSDIPSRFSGSLSGSTNTLTITGVRADDEAVYFCGSADNSGDAFGAGTTLTVLGQPKSSPSVTLFPPSSEELETNKATLVCTITDFYPGVVTVDWKVDGTPVTQGMETTQPSKQSNNKYMASSYLTLTARAWERHSSYSCQVTHEGHTVEKSLSRADCS
notes: Avian variable regions of clone No. 4-2 with mouse IgG2a heavy and mouse lambda light constant regions; also called anti-Sema 3A avian-mouse chimeric antibody (IgG)
